Assay results from the supplement of paper PMC7877785.
± gives the uncertainty stated by the source.

Assay: self-splicing fitness, log relative to wild type (ln ratio); higher = more splicing; Tetrahymena group I intron in knt gene, E. coli kanamycin selection, DiMSum; sequences stand for … in CUCUCU…GGAGGGAAAAGUUAUCAGGCAUGCACCUGGUAGCUAGUCUUUAAACCAAUAGAUUGCAUCGGUUUAAAAGGCAAGACCGUCAAAUUGCGGGAAAGGGGUCAACAGCCGUUCAGUACCAAGUCUCAGGGGAAACUUUGAGAUGGCCUUGCAAAGGGUAUGGUAAUAAGCUGACGGACAUGGUCCUAACCACGCAGCCAAGUCCUAAGUCAACAGAUCUUCUGUUGAUAUGGAUGCAGUUCACAGACUAAAUGUCGGUCGGGGAAGAUGUAUUCUUCUCAUAAGAUAUAGUCGGACCUCUCCUUAAUGGGAGCUAGCGGAUGAAGUGAUGCAACACUGGAGCCGCUGGGAACUAAUUUGUAUGCGAAAGUAUAUUGAUUAGUUUUGGAGUACUCGUGGUCG
Procedure, shortened: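 Library with all eight P1ex-region intron nucleotides randomised, intron inside the knt kanamycin-resistance gene on pET-22b(+), in E. coli BL21(DE3). Cells grew overnight at 37°C or 30°C on LB agar with or without 25 μg/mL kanamycin (plus 100 μg/mL carbenicillin, 50 μM IPTG, 0.2% rhamnose), in six replicate transformations. Pooled colonies were amplicon-sequenced on Illumina HiSeq 2500. DiMSum fitness is the error-weighted combination of wild-type-normalised replicate fold changes, kanamycin versus none.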

Sequence | self-splicing fitness (ln) (30 °C) | self-splicing fitness (ln) (37 °C)
UCAAAGCAAUAUUACGUGGG | -2.85 ± 0.098 | -2.17 ± 0.12
CCCCAGCAAUAUUACGCACA | -3.56 ± 0.21 | -3.66 ± 0.29
UCCAAGCAAUAUUACGCUUA | -3.43 ± 0.18 | -1.86 ± 0.11
UGGUAGCAAUAUUACGCGCA | -0.453 ± 0.1 | 0.351 ± 0.11
AGGUAGCAAUAUUACGUUGC | -3.874 ± 0.031 | -3.06 ± 0.047
UCUCAGCAAUAUUACGAUAU | -2.12 ± 0.14 | -1.75 ± 0.18
CUCUAGCAAUAUUACGACUA |  | -1.71 ± 0.28
GGUCAGCAAUAUUACGCGUG | -0.989 ± 0.077 | -0.272 ± 0.083
ACUGAGCAAUAUUACGGUUU | -3.46 ± 0.17 | -2.6 ± 0.11
AUUGAGCAAUAUUACGUUAG | -3 ± 0.14 | -2.73 ± 0.19
AGGAAGCAAUAUUACGGUAC | -3.99 ± 0.36 | -3.03 ± 0.25
ACUGAGCAAUAUUACGCCUA | -2.23 ± 0.17 | -1.42 ± 0.18
GUCUAGCAAUAUUACGUAGG | -0.837 ± 0.14 | -0.942 ± 0.21
GAGGAGCAAUAUUACGGCUA | -1.75 ± 0.12 | -1.37 ± 0.11
UCUAAGCAAUAUUACGGACG | -3.16 ± 0.22 | -1.95 ± 0.28
GCAGAGCAAUAUUACGCCAG | -2.36 ± 0.48 | 
GCUAAGCAAUAUUACGGAAA | -1.48 ± 0.2 | -2.28 ± 0.24
GAGCAGCAAUAUUACGCAUC | -3.22 ± 0.2 | -3.08 ± 0.37
CUUUAGCAAUAUUACGGACG | -0.38 ± 0.07 | -0.273 ± 0.11

Sequence | self-splicing fitness (ln) (30 °C) | self-splicing fitness (ln) (37 °C)
ACCCAGCAAUAUUACGACCC | -1.06 ± 0.13 | 0.555 ± 0.18
GGCCAGCAAUAUUACGGUAC | -3.7 ± 0.19 | -2.3 ± 0.15
CGCUAGCAAUAUUACGCGAU | -3.59 ± 0.19 | -2.25 ± 0.2
UUAUAGCAAUAUUACGUCUG | -0.366 ± 0.11 | -0.511 ± 0.13
UGUCAGCAAUAUUACGCACC | -1.28 ± 0.18 | -0.269 ± 0.21
GCGGAGCAAUAUUACGAUGA | -3.1 ± 0.23 | -2.23 ± 0.26
CAGUAGCAAUAUUACGGGGA | -3.9 ± 0.4 | -2.23 ± 0.21
GUGAAGCAAUAUUACGCAAG | -0.985 ± 0.09 | 0.0285 ± 0.1
UUCAAGCAAUAUUACGAUUU | -3.24 ± 0.21 | -1.12 ± 0.17
UGUCAGCAAUAUUACGCUUU | -1.13 ± 0.091 | 0.276 ± 0.09
UUUAAGCAAUAUUACGAUAU | -2.91 ± 0.14 | -1.52 ± 0.14
CAAUAGCAAUAUUACGUGUC | -3.97 ± 0.18 | -3.28 ± 0.21
AACCAGCAAUAUUACGCGCA | -0.111 ± 0.068 | -0.00763 ± 0.089
CCGGAGCAAUAUUACGAUAG | -0.959 ± 0.07 | -0.152 ± 0.081
GCUCAGCAAUAUUACGAGAU | -1.4 ± 0.077 | -0.431 ± 0.078
UUCAAGCAAUAUUACGCGAG | -2.19 ± 0.096 | -1.33 ± 0.1
GAUAAGCAAUAUUACGCCUA | -0.016 ± 0.19 | -0.316 ± 0.19
CAAUAGCAAUAUUACGGUGC | -3.75 ± 0.23 | -3.67 ± 0.29
CAAGAGCAAUAUUACGUAAA | -4.16 ± 0.29 | -3.01 ± 0.26
